Legend:
[1] = target: Methanospirillum hungatei phosphoribulokinase (MhPRK) (Methanospirillum hungatei); test: crystal structure; hanging-drop vapour diffusion at 20 °C; 2.5 Å; the asymmetric unit holds two MhPRK protomers (chains A and B) related by approximately two-fold noncrystallographic symmetry
[2] = target: T1, M. hungatei RuBisCO (Mh-RuBisCO) (Methanospirillum hungatei, UniProt Q2FSY4); test: coupled PGK / GAPDH carboxylase assay, NADH at […] nm; turnover only; type: biochemical; conditions: 2 mM RuBP, 50 mM NaHCO3, 20 mM MgCl2, pH 8.0, 25 °C, anaerobic
T1 construct: gene rbcL; recombinant in E. coli C43 (DE3), pET-15b, His6 tag cleaved by thrombin

[3] = substrate: Nc1ncnc2c1ncn2[C@@H]1O[C@H](COP(=O)(O)OP(=O)(O)OP(=O)(O)O)[C@@H](O)[C@H]1O; test: purified protein; type: biochemical, Methanothrix thermoacetophila; conditions: co-substrate Ru5P (2 mM), 10 mM MgCl2, 100 mM KCl, pH 8.0, 25 °C
[4] = substrate: O=C(CO)[C@H](O)[C@H](O)COP(=O)(O)O; test: purified protein; type: biochemical, Methanothrix thermoacetophila; conditions: co-substrate ATP (2 mM), 10 mM MgCl2, 100 mM KCl, pH 8.0, 25 °C
[5] = substrate: Nc1ncnc2c1ncn2[C@@H]1O[C@H](COP(=O)(O)OP(=O)(O)OP(=O)(O)O)[C@@H](O)[C@H]1O; test: purified protein; type: biochemical, Methanospirillum hungatei; conditions: co-substrate Ru5P (2 mM), 10 mM MgCl2, 100 mM KCl, pH 8.0, 25 °C
[6] = substrate: O=C(CO)[C@H](O)[C@H](O)COP(=O)(O)O; test: purified protein; type: biochemical, Methanospirillum hungatei; conditions: co-substrate ATP (2 mM), 10 mM MgCl2, 100 mM KCl, pH 8.0, 25 °C
[7] = substrate: Nc1ncnc2c1ncn2[C@@H]1O[C@H](COP(=O)(O)OP(=O)(O)OP(=O)(O)O)[C@@H](O)[C@H]1O; test: purified protein; type: biochemical, Methanothrix soehngenii; conditions: co-substrate Ru5P (2 mM), 10 mM MgCl2, 100 mM KCl, pH 8.0, 25 °C
[8] = substrate: O=C(CO)[C@H](O)[C@H](O)COP(=O)(O)O; test: purified protein; type: biochemical, Methanothrix soehngenii; conditions: co-substrate ATP (2 mM), 10 mM MgCl2, 100 mM KCl, pH 8.0, 25 °C

T1 sequence (Q2FSY4 entry or part of it): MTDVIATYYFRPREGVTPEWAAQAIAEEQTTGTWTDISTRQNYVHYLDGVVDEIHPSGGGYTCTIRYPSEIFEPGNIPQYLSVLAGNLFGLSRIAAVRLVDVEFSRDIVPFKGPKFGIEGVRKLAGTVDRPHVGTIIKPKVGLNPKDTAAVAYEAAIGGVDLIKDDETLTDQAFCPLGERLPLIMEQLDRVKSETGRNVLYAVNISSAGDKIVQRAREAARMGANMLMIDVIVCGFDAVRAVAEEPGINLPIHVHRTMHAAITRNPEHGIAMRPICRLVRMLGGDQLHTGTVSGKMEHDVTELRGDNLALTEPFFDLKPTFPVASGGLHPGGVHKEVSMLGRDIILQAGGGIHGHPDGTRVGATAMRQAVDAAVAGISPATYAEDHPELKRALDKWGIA

## Methanospirillum hungatei phosphoribulokinase (MhPRK) (enzyme)
[1]
  stoichiometry N: 2

## O=C(COP(=O)(O)O)[C@H](O)[C@H](O)COP(=O)(O)O [RuBP]
[2]
  coupled PGK / GAPDH carboxylase assay, NADH at 340 nm; turnover only: M. hungatei RuBisCO was found to have a specific activity for the carboxylase reaction

B1: Methanosaeta thermophila PRK homologue (Mtprk) (Methanothrix thermoacetophila PT) (protein)
chain: MRLLEKIRESGRVFVVAVAGDSGSGKTTFTRGIRRLLGEDVVSTFSMDDYHSLDRRQRKTLGITPLRPEANRFDLLAEHLAMLRRGLAIEKPVYDHTTGEIRGPVIFKPSPVIIVEGLHPFYTEELRKLSDFKIFVDPSRAVKRRWKLRRDVGERGYAPEDVMREILEREPDYKLYVDVQKVYAEMVIKIQDSRIPPEWTEIARGSAREKYSVRIIQQILDHPLDEVDLTIDLSRIMRLTEREFSIEFQRDDYYGKRVGVMTLDGEFPLTMIKDLERKLCDFLGRDVPSVTEGCQEDHGSYVNATEMTQLILIWRFLEKIANLAW
notes: recombinant in E. coli C43 (DE3), pET15b, His6 tag, purified as MhPRK (thrombin-cleaved)
[3]
  Km: 5.66 ± 0.21 µM
[4]
  Km: 230 ± 50 µM

B2: MhPRK (M. hungatei PRK homologue) (Methanospirillum hungatei JF-1) (protein)
chain: MSQPENFREVIRHSPLVYLIGVAGDSGSGKSTFTRAISDIFGEELVSSITVDDYHLYDRKTRSEMGITPLLHTANNLKLLEENLMDLKAGRTIQKPVYLHDHGTFGEPELFSPTKFIIIEGLHPYATKSLRALYDYTIFVDPERDVKYDWKIRRDMKKRNYDKNEVLREILQREPDYFQYVFPQREVADAVIQISYSSYGKEEGEKRNVYRVMLSMPAQEYCFEDIELNIDLCDLFKKSSHDFSLSCISHTPDSRNMRALVVDGELMPDTIHKIERQIEFQTGISPINIFRGQEHITGTDLVRLILSWQIINGRIALSNHLDQ
notes: recombinant in E. coli C43 (DE3), pET-15b, His6 tag cleaved by thrombin; homodimer; residues up to 323
[5]
  Km: 20.70 ± 1.70 µM
[6]
  Km: 280 ± 50 µM

B3: Methanosaeta concilii PRK homologue (Mcprk) (Methanothrix soehngenii GP6) (protein)
chain: MRSLKDRIRESGRVFVFGIAGDSGSGKTTISRGIRRILGEDMVATFSMDDYHSLDRRQRKERNITPLHPDANQFDLLAEHLEALRRNERIDKPVYDHRTGEISGTVPFGPAPVIIVEGLHPLYTERLRSQIDFKIFVDPSRSVKRLWKIRRDVGERGYETGQVMAEILQREPDYKLYVDIQKIYAQIVIKIQDSRFHPSLLDSQSTLDWYSVRLIMEIMEHPVSEVSMNIDLSKILRRSEHEFSIEFQRDDYYGKRVGIMTMDGEIHQSMISDLEKKLGESLGTDGMISDRREEYVNAIGLAQLILTWNCVEKLDYLLQEEGY
notes: as for B1
[7]
  Km: 17.91 ± 2.02 µM
[8]
  Km: 310 ± 80 µM
